Experimental data: article PMC3101248

Biological target: mouse VPS29 (isotopically labelled NMR sample) (mouse)
Test: NMR titration; SNX1 titrated into 0.1 mM 15N-labelled VPS29, soFast 15N HMQC, 298 K, 600 MHz; 10 mM HEPES (pH 7.5), 100 mM NaCl, DTT

**Q.** With “human SNX1 (recombinant, for NMR titrations) (from UniProt Q13596 1-522) (natural protein)” as the substance, how does the Kd read?
**A.** > 150 µM
